The record followed here is publication PMC11931385, “Structural and functional analysis of cancer-associated missense variants in the retinoblastoma protein pocket domain” (The Journal of Biological Chemistry, 2025).

No end group written: not given here. TMR = tetramethyl rhodamine dye

Holding throughout (experiment): fluorescence polarisation; 25 °C; unlabeled Rb^P titrated against 1.5 nM TMR-E2F1^TD or 7.5 nM TMR-E7^LxCxE; 25 mM Tris pH 8.0, 200 mM NaCl, 1 mM DTT, 0.1% Tween-20; 2 min incubation; quadratic fit; apparent Kd for the variants, Kd for WT
Holding throughout (conditions): both partners purified
On the technique in general: In fluorescence polarisation assays a small probe gives low polarisation when free and higher when bound to something large.

Test [1] addresses T1, Rb^P T664A (human, UniProt P06400 380-788, T664A).
T1 construct: also called variant 50
T1 sequence (looked up): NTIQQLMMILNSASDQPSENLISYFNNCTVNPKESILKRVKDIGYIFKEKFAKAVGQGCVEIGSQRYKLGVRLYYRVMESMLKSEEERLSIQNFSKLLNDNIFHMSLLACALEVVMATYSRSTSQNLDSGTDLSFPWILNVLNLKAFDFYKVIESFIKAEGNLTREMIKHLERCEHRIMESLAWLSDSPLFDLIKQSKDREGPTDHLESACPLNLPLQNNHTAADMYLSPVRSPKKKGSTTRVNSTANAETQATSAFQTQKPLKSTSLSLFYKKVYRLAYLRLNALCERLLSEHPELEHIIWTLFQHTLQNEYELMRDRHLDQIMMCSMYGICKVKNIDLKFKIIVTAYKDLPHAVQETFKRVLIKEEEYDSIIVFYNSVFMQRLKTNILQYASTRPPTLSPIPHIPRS

Test [2] addresses T2, Rb^P T620M (human, UniProt P06400 380-788, T620M).
T2 construct: also called variant 40
T2 sequence (looked up): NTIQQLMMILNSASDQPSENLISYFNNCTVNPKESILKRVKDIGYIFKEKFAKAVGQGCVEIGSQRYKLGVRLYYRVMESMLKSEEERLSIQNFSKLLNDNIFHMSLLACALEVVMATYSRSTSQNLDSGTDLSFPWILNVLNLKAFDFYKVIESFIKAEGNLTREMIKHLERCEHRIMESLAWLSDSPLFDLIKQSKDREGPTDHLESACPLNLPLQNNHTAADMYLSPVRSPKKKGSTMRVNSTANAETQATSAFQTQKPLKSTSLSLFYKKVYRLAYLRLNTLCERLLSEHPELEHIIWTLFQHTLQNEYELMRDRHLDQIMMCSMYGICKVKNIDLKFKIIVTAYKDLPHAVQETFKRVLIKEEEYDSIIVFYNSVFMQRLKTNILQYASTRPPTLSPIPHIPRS

The target in test [3] is T3, Rb^P R621C (human, UniProt P06400 380-788, R621C).
T3 construct: also called variant 41
T3 sequence (looked up): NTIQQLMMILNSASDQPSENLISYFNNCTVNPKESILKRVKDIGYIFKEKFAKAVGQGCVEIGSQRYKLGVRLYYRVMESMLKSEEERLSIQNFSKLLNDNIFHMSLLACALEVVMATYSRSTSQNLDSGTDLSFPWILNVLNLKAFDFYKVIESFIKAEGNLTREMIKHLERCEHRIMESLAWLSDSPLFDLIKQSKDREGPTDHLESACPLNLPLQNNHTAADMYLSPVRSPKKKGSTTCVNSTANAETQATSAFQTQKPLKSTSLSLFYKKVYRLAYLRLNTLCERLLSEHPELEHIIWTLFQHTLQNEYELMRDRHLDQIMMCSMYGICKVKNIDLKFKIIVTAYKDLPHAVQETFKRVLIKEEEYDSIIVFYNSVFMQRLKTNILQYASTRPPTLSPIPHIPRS

Test [4] has as its target T4, Rb^P L550I (human, UniProt P06400 380-788, L550I).
T4 construct: also called variant 27
T4 sequence (looked up): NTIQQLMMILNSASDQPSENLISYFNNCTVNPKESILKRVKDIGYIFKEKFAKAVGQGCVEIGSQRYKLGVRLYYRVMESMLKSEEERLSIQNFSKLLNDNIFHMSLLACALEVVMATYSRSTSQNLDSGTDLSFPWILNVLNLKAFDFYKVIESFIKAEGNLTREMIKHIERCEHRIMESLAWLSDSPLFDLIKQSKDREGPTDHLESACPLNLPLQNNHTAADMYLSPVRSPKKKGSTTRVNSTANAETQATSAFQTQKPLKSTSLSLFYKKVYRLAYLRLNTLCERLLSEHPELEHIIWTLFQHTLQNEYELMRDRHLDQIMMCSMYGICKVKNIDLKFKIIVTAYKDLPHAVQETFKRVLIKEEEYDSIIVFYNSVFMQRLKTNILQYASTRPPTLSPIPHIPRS

For test [5], the target named is T5, Rb^P A490S (human, UniProt P06400 380-788, A490S).
T5 construct: also called variant 15
T5 sequence (looked up): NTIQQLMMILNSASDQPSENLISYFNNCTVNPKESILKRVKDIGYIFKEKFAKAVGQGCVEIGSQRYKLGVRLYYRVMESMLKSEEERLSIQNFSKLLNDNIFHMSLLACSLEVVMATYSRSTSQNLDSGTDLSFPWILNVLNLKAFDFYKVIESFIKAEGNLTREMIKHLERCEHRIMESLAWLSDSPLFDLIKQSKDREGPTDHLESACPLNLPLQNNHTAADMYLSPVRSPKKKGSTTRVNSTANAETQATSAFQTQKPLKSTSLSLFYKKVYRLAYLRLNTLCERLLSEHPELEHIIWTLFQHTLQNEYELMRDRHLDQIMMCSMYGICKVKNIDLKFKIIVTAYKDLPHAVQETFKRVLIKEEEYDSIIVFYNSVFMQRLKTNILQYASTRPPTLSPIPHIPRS

B1: TMR-E2F1^TD, peptide of the E2F1 transactivation domain (peptide)
peptide: {TMR}-GEGIRDLFDCDFGDLTPLD
notes: also called E2F^TD; source: synthetic peptide, bought: GenScript
Turning to B1, the Kd is 15 nM in test [1]; 24 nM in test [2]; 22 nM in test [3]; 41 nM in test [4]; 17 nM in test [5].

B2: TMR-E7^LxCxE, LxCxE peptide of the E7 oncoprotein from HPV (peptide)
peptide: DLYCYEQLN
modifications: also: TMR label, position not given here
notes: source: synthetic peptide, bought: GenScript
As for B2, the Kd is 8 nM in test [1]; 6 nM in test [2]; 12 nM in test [3]; 3 nM in test [4]; 7 nM in test [5].
